The text below walks through data of patent publication US20200231630A1.

One may read the Kd as the free concentration of one partner at which half of the binding sites on the other are occupied at equilibrium, for simple one-to-one binding. Read a high Kd as weaker binding.

The target of assay [1] is rsH14WIv1 monomeric HA1 head. Description: BLI, Fab and monomeric HA head.
Assay [2] addresses rsH14WIv2 monomeric HA1 head. As to the kind of experiment: BLI, Fab and monomeric HA head. In general terms: Biolayer interferometry detects binding as a change in optical thickness at a sensor tip.
Assay [3] has as its target H1 A/Solomon Islands/3/2006 hemagglutinin, monomeric HA1 head (Influenza A virus H1N1 A/Solomon Islands/3/2006) (UniProt B4URD6). Description: BLI, Fab on Ni-NTA sensor, monomeric HA head in solution.
In assay [4] the target is rsH4NBv1 monomeric HA1 head. Described as above.
Assay [5] concerns the target rsH4NBv3 monomeric HA1 head. Described as above.
Assay [6] concerns the target H4N6 A/America black duck/New Brunswick/00464/2010 hemagglutinin, monomeric HA1 head (Influenza A virus H4N6 A/America black duck/New Brunswick/00464/2010). The assay is described as above.
Assay [7] concerns the target H14N6 A/mallard/Wisconsin/10OS3941/2010 hemagglutinin, monomeric HA1 head (Influenza A virus H14N6 A/mallard/Wisconsin/10OS3941/2010). The assay is described as above.
In assay [8] the target is rsH14WIv1 monomeric HA1 head. The description is as above.
The target of assay [9] is rsH14WIv2 monomeric HA1 head. The description is as above.

In assay [1], C05 Fab returned a fold KD greater than wildtype H1 SI-06 of 1.3 fold. The substance also registered a fold tighter binding than wildtype H1 SI-06 in assay [2] above 10 fold. Also, the Kd in [3] was 1100 nM; in assay [4], above 100000 nM; in assay [5], 340 nM; in [6] it was above 100000 nM; in [7], above 100000 nM; in [8] it was 1400 nM. Further, the dissociation constant Kd in assay [9] worked out at 65 nM.
In the case of CH67 Fab, the fold KD greater than wildtype H1 SI-06 in assay [1] is 17 fold. For the same substance, the Kd was 570 nM in assay [3]; above 100000 nM in assay [4]; 1600 nM in [5]; above 100000 nM in assay [6]; above 100000 nM in assay [7]; 9500 nM in [8]. This substance returned a Kd in assay [9] of 310 nM.
